According to EP0556111A1:

Assays:
[1] = target: reagent Mα2-3/peroxidase, obtained by classical chemical coupling
[2] = target: hybrid F(ab)₂-PhoA (complex hybrid protein alkaline phosphatase/F(ab)₂ of antibody Mα2-3) (E. coli) [phosphatase: P00634]

toxin alpha (from UniProt P01426)
IC50 [1]: 9 nM
IC50 [2]: 20 nM
